Where a chain is given by its changes, count along the chain named. In names and notes the source's numbering stands.
B1: WT Irga6, recombinant (enzyme, mouse, UniProt Q9QZ85 1-413, looked up)
chain: MGQLFSSPKSDENNDLPSSFTGYFKKFNTGRKIISQEILNLIELRMRKGNIQLTNSAISDALKEIDSSVLNVAVTGETGSGKSSFINTLRGIGNEEEGAAKTGVVEVTMERHPYKHPNIPNVVFWDLPGIGSTNFPPNTYLEKMKFYEYDFFIIISATRFKKNDIDIAKAISMMKKEFYFVRTKVDSDITNEADGKPQTFDKEKVLQDIRLNCVNTFRENGIAEPPIFLLSNKNVCHYDFPVLMDKLISDLPIYKRHNFMVSLPNITDSVIEKKRQFLKQRIWLEGFAADLVNIIPSLTFLLDSDLETLKKSMKFYRTVFGVDETSLQRLARDWEIEVDQVEAMIKSPAVFKPTDEETIQERLSRYIQEFCLANGYLLPKNSFLKEIFYLKYYFLDMVTEDAKTLLKEICLRN
B2: Irga6-K82A, recombinant (enzyme, mouse, UniProt Q9QZ85 1-413, looked up)
chain: B1 chain with K82A

Target: the molecule itself
Experiment: conventional and dynamic light scattering

Protein | binding result
B1 | binds
B2 | binds
